# Measured values as given in paper PMC4161027 (2014).
# B1: GST-tagged ENTH domain of rat epsin 1 (protein)
# chain: MSTSSLRRQMKNIVHNYSEAEIKVREATSNDPWGPSSSLMSEIADLTYNVVAFSEIMSMIWKRLNDHGKNWRHVYKAMTLMEYLIKTGSERVSQQCKENMYAVQTLKDFQYVDRDGKDQGVNVREKAKQLVALLRDEDRLREER
# Target: F-actin (polymerized rabbit muscle G-actin) (Oryctolagus cuniculus (Rabbit), UniProt P68135)
# Test: F-actin co-sedimentation
binder,measurement,value
B1,binding result,no binding
